Data set [1] concerns p65. The experiment in a line: Nuclear translocation assay (p65-HiBiT HeLa cells, LgBiT*-nuclear sensor). The data set is classed as cell-based. The conditions noted are these: for Time to reach maximum accumulation of p65 in the nucleus upon stimulation: real time measurement. From the text:
A nuclear translocation assay was developed using measuring p65 movement from cytosol to the nucleus under TNFa stimulus. The nuclear translocation assay was set up similar to the membrane translocation assay. […] The assay allows measurement of protein translocation in real time.
Background: With HiBiT, luminescence reflects the tagged protein that the partner subunit can reach.

Data set [2] relates to SmTrip10 pep86 and SmTrip9 pep245. Nature of the data set: LgTrip 2098 activation by separate β9 and β10-like peptides. The data set is classed as biochemical. The conditions noted are these: 10× concentrated lysate, peptides at 500 nM. As for the experimental part:
The luminescence of LgTrip 2098 (SEQ ID NO: 31) was monitored over time in the presence of separate peptides corresponding to the β10 and β9 portions of the full-length luciferase (SmTrip10 pep86 (SEQ ID NO: 25) and SmTrip9 pep245) (SEQ ID NO: 23) (FIG. 2). Similar experimental protocols were used as in Example 1; however, a 10× concentrated lysate was used, Peptides SmTrip10 pep86 and SmTrip9 pep245 were used at 500 nM, and 0.001% Prionex added to reactions. […] Controls with no peptides added or only one of the peptides added produced near the background of the plate reader.

Data set [3] can be described thus: Effect of urea on activity. It is filed as physicochemical. As for the experimental part:
To test activity in the presence of urea, each enzyme was diluted to 1 uM in TBS+0.01% BSA+0.01% Tergitol and further diluted to 2 nM in TBS+0.01% BSA+0.01% Tergitol. […] A two-fold titration series was prepared for each, starting with 10M urea in 25 mM Tris pH 7.5+0.01% Tergitol. 10 uM furimazine was added to each sample of the titration series, and 5 ul of each enzyme or enzyme+pep263 (SEQ ID NO: 35) were combined with 45 ul of each substrate additive mixture. Plates were incubated for 3 minutes and then read on GMM+.
To test the effect of prolonged exposure to urea, each enzyme was diluted to 1 uM, and a two-fold titration series was prepared starting with 10M urea in 25 mM Tris pH 7.5+0.01% Tergitol. 2 ul of each enzyme was added to 198 ul of the urea titration (10 nM final of each enzyme). The “no” additive control was TBS+0.01% BSA+0.01% Tergitol. Samples were incubated for 26 hours. After incubation, samples were diluted 1:10,000 into TBS+0.01% BSA+0.01% Tergitol (10 ul in 990 ul two times). […] 50 ul of each sample was combined with 50 ul of NanoGlo® buffer+50 uM Furimazine. Plates were incubated for 3 minutes and then read on GMM+.

In data set [4] the test system is SmTrip10 pep86 / pep263. The experiment in a line: Luminescence of LgBiT and LgTrip 2098 E. coli lysates with complementary peptide. The data set is classed as biochemical. The following applies: E. coli lysate, 25 nM peptide. The protocol: (275 rpm) in a volume of 50 mL. From these cultures, 100× dilutions were made into the same media and the cultures grown at 37 C (275 rpm) for 3 h and then cooled to 25° C. before adding rhamnose (inducing agent for protein overexpression) to a final concentration of 0.2%. Cultures were then grown (induced) for 22 h at 25° C. (275 rpm) at which time cultures were harvested, and the resulting pellets stored at −20° C. until processing. To lyse cells, pellets were removed from −20° C., resuspended in 50 mL of PBS pH 7.2, and taken through 3 sequential freeze thaw cycles (−70° C. to 22° C.), centrifuged to produce soluble fractions, and then kept cold (on ice) until assaying. Lysates and peptide(s) (25 nm final concentration) were incubated together for 10 minutes at 25° C. prior to the addition of NanoGlo® reagent. After addition of reagent, plates were incubated for another 5 min at 35° C. and read over time to measure luminescence (RLU) using a Tecan Infinite F500 plate reader.

Data set [5] in a line: Effect of pH on activity. It is filed as physicochemical. The conditions noted are these: pH titration series of universal buffer. The protocol:
A universal buffer was prepared containing 25 mM of each: NaCitrate, MES, PIPES, HEPES, TAPS, and Thiourea in 0.5% Tergitol. The buffer was divided into 8 aliquots of 20 ml, and NaOH or HCl was added to create a pH titration series.
To test effect of pH on activity, each enzyme was diluted to 1 uM and then diluted to 0.4 nM in 3 ml of TBS+0.01% BSA+0.01% Tergitol. […] Assay reagent for each pH buffer tested (Table 5) (20 ul of furimazine in 980 of buffer). 10 ul of each enzyme/peptide dilution was combined with 50 ul of assay reagent. Plates were incubated for 3 minutes and read on GMM+.
To test the effect of prolonged exposure varying pH, each enzyme was diluted to 1 uM in TBS+0.01% BSA+0.01% Tergitol, which was then diluted to 20 nM in each buffer. T=0 samples were mixed and then diluted 1:10 into 200 mM HEPES pH 7.5+0.01% BSA+0.01% Tergitol and stored at 4° C. T=8 samples were mixed and then diluted 1:10 into 200 mM HEPES pH 7.5+0.01% BSA+0.01% Tergitol store at 4° C. T=24 samples were mixed and then diluted 1:10 into 200 mM HEPES pH 7.5+0.01% BSA+0.01% Tergitol store at 4° C. […] 40 ul of each sample was diluted with 40 ul of NanoGlo® buffer+40 uM furimazine, incubated for 3 minutes, and then read on GMM+.

Regarding TNFα, the “EC50, titration of TNFα” value in data set [1] (p65-HiBiT cell line transfected with LgBiT*-nuclear sensor) was found to be 0.7 ng/mL. In data set [1] (p65-HiBiT cells, LgBiT*-nuclear sensor), the “Fold-response, titration of TNFα” value is recorded as 4 fold. Moreover, the “Time to reach maximum accumulation of p65 in the nucleus upon stimulation” value was 30 min in data set [1] and “approximately 30 min” in data set [1] (listed as TNFa).

B1: LgTrip 2098: β1-8-like polypeptide, SEQ ID NO: 17; SEQ ID NO: 31 with His tag (protein)
chain: MVFTLEDFVGDWEQTAAYNLDQVLEQGGVSSLLQNLAVSVTPIQRIVRSGENALKIDIHVIIPYEGLSADQMAQIEEVFKVVYPVDDHHFKVILPYGTLVIDGVTPNMLNYFGRPYEGIAVFDGKKITVTGTLWNGNKIIDERLITPD
With B1, the “Activation by separate β9 and β10 peptides” value in data set [2] is “activated by the addition of SmTrip10 pep86 and SmTrip9 pep245”. Also, the “Activity after prolonged (26 hour) exposure to urea” value in data set [3] (26 hours incubation in urea titration) is reported as “regain activity upon prolonged treatment with urea”. Besides, the “Activity in the presence of urea (susceptibility to inactivation)” value in data set [3] (urea titration from 10M, with pep263 for LgBiT and LgTrip) is “least effected by urea”. Moreover, the “Gain in signal in the presence of complementary peptide” value in data set [4] was “greater”.

B2: LgTrip: β1-8-like polypeptide corresponding to SEQ ID NO: 17; variants LgTrip 2098 and LgTrip 3546 (protein)
chain: B1 chain
On to B2, for which the “Effect of pH on activity” value in data set [5] is “resistant to a wide pH range”.

Source of the values: patent publication US12655398B2, “Multipartite luciferase” (Promega Corporation, priority 2018, dated 2026).
